Assay results published in article PMC2279300.

Legend:
[1] = biological target: biotinylated oligopeptide spanning one repeat unit of the TARP phosphodomain, first tyrosine phosphorylated (pY1) (Chlamydia trachomatis serovar L2)
[2] = biological target: biotinylated oligopeptide spanning one repeat unit of the TARP phosphodomain, second tyrosine phosphorylated (pY2) (Chlamydia trachomatis serovar L2)
Chain of biotinylated oligopeptide spanning one repeat unit of the TARP phosphodomain, second tyrosine phosphorylated (pY2) (Chlamydia trachomatis serovar L2) (Q6GX35 174-222): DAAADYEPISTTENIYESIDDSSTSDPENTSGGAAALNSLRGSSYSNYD

Chain of biotinylated oligopeptide spanning one repeat unit of the TARP phosphodomain, first tyrosine phosphorylated (pY1) (Chlamydia trachomatis serovar L2) (Q6GX35 174-222): as above

“Vav2 (from UniProt P52735 1-878) (natural protein)” was tested, and the guanine nucleotide exchange activity towards His-Cdc42 of the pY1 oligopeptide precipitate from lysate supplemented with PI 3,4,5-P3 (32P label retained on filters) [1] was 28700 CPM, the guanine nucleotide exchange activity towards His-Rac1 of the pY1 oligopeptide precipitate from lysate supplemented with PI 3,4,5-P3 (32P label retained on filters) [1] was 51200 CPM and the guanine nucleotide exchange activity towards His-Cdc42 of the pY2 oligopeptide precipitate from lysate supplemented with PI 3,4,5-P3 (32P label retained on filters) [2] was 23000 CPM. For the same substance, the guanine nucleotide exchange activity towards His-Rac1 of the pY2 oligopeptide precipitate from lysate supplemented with PI 3,4,5-P3 (32P label retained on filters) [2] was 31700 CPM.
“Sos1 (from UniProt Q07889 1-1333) (natural protein)” gave a guanine nucleotide exchange activity towards His-Rac1 of the pY1 oligopeptide precipitate from regular HeLa lysate (32P label retained on filters) [1] of 31000 CPM.
